US12338277

Tests used:
Test in all cases: cell-based or functional assay
[1] = target: HIV-1 Env of pseudovirus 1394C9G1(Rev-) (HIV-1)
[2] = target: HIV-1 Env of pseudovirus 191084 B7-19 (HIV-1)
[3] = target: HIV-1 Env of pseudovirus 191821_E6_1 (HIV-1)
[4] = target: HIV-1 Env of pseudovirus 235-47 (HIV-1)
[5] = target: HIV-1 Env of pseudovirus 6240_08_TA5_4622 (HIV-1)
[6] = target: HIV-1 Env of pseudovirus 6540.v4.c1 (HIV-1)
[7] = target: HIV-1 Env of pseudovirus 6545.v4.c1 (HIV-1)
[8] = target: HIV-1 Env of pseudovirus BJOX025000.01.1 (HIV-1)
[9] = target: HIV-1 Env of pseudovirus C1080.c03 (HIV-1)
[10] = target: HIV-1 Env of pseudovirus CAP45.2.00.G3 (HIV-1)
[11] = target: HIV-1 Env of pseudovirus CNE17 (HIV-1)
[12] = target: HIV-1 Env of pseudovirus Ce2060_G9 (HIV-1)
[13] = target: HIV-1 Env of pseudovirus Du172.17 (HIV-1)
[14] = target: HIV-1 Env of pseudovirus HIV-001428-2.42 (HIV-1)
[15] = target: HIV-1 Env of pseudovirus Q23.17 (HIV-1)
[16] = target: HIV-1 Env of pseudovirus Q451.e2 (HIV-1)
[17] = target: HIV-1 Env of pseudovirus Q842.d12 (HIV-1)
[18] = target: HIV-1 Env of pseudovirus R1166.c01 (HIV-1)
[19] = target: HIV-1 Env of pseudovirus RHPA4259.7 (HIV-1)
[20] = target: HIV-1 Env of pseudovirus T255-34 (HIV-1)
[21] = target: HIV-1 Env of pseudovirus T257-31 (HIV-1)
[22] = target: HIV-1 Env of pseudovirus X1193_c1 (HIV-1)
[23] = target: HIV-1 Env of pseudovirus X2131_C1_85 (HIV-1)
[24] = target: HIV-1 Env of pseudovirus ZM109F.PB4 (HIV-1)
[25] = target: HIV-1 Env of pseudovirus ZM135M.PL10a (HIV-1)
[26] = target: HIV-1 Env of pseudovirus ZM233M.PB6 (HIV-1)
[27] = target: HIV-1 envelope of pseudovirus 246F C1G (HIV-1)
[28] = target: HIV-1 envelope of pseudovirus 3415.v1.c1 (HIV-1)
[29] = target: HIV-1 envelope of pseudovirus 62357_14_03_4589 (HIV-1)
[30] = target: HIV-1 envelope of pseudovirus 6480.v4.c25 (HIV-1)
[31] = target: HIV-1 envelope of pseudovirus 6535.3 (HIV-1)
[32] = target: HIV-1 envelope of pseudovirus 6811.v7.c18 (HIV-1)
[33] = target: HIV-1 envelope of pseudovirus C3347.c11 (HIV-1)
[34] = target: HIV-1 envelope of pseudovirus CAP210.2.00.E8 (HIV-1)
[35] = target: HIV-1 envelope of pseudovirus CNE21 (HIV-1)
[36] = target: HIV-1 envelope of pseudovirus Ce1086_B2 (HIV-1)
[37] = target: HIV-1 envelope of pseudovirus Ce2010_F5 (HIV-1)
[38] = target: HIV-1 envelope of pseudovirus Ce704809221_1B3 (HIV-1)
[39] = target: HIV-1 envelope of pseudovirus HIV-16845-2.22 (HIV-1)
[40] = target: HIV-1 envelope of pseudovirus Q769.d22 (HIV-1)
[41] = target: HIV-1 envelope of pseudovirus Q842.d12 (HIV-1)
[42] = target: HIV-1 envelope of pseudovirus T250-4 (HIV-1)
[43] = target: HIV-1 envelope of pseudovirus T278-50 (HIV-1)
[44] = target: HIV-1 envelope of pseudovirus X1632_S2_B10 (HIV-1)
[45] = target: HIV-1 envelope spike of pseudovirus 6535.3 (HIV-1)
[46] = target: HIV-1 envelope spike of pseudovirus CAAN5342.A2 (HIV-1)
[47] = target: HIV-1 envelope spike of pseudovirus R1166.c1 (HIV-1)
[48] = target: HIV-1 envelope spike of pseudovirus YU-2 (HIV-1) (UniProt P35961)
Chain of HIV-1 envelope spike of pseudovirus YU-2 (HIV-1) (P35961 32-843): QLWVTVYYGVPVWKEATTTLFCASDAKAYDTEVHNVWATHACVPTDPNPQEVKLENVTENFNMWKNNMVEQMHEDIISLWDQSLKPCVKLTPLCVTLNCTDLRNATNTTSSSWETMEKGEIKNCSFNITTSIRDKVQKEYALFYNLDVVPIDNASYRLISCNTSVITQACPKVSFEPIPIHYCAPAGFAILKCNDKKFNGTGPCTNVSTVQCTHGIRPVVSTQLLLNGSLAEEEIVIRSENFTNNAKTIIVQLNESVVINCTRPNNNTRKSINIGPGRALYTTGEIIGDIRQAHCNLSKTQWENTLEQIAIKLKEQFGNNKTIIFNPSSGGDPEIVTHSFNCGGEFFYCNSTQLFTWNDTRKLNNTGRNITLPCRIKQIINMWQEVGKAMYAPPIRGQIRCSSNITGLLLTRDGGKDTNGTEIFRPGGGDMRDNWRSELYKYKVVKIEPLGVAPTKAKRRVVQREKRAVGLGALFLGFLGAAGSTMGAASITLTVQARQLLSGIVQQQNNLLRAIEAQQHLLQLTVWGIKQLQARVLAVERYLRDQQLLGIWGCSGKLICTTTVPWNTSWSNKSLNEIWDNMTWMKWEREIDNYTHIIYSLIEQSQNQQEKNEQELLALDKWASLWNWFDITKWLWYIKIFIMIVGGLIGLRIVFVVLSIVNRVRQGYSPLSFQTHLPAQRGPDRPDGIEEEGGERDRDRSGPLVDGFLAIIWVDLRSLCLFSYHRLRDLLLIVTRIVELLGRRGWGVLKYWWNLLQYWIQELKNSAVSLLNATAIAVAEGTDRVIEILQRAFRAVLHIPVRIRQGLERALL

[49] = target: Murine leukemia virus (MuLV) envelope on pseudovirus (Murine leukemia virus)

Chain of 10-1074 (antibody) (VH): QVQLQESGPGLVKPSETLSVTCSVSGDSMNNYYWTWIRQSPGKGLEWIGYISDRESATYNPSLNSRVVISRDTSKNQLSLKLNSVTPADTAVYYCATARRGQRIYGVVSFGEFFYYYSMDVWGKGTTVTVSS
Chain of 10-1074 (antibody) (V domain): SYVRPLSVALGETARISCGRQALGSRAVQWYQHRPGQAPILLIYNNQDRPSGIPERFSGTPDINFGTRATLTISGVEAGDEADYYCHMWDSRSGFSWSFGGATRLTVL

With PGT121 (antibody) the IC80 (TZM-bl neutralization) [1] was 3.37 µg/mL, the IC80 (TZM-bl neutralization) [2] was 0.128 µg/mL and the IC80 (TZM-bl neutralization) [3] was > 50 µg/mL. For the same substance, the IC80 (TZM-bl neutralization) [4] was 1.68 µg/mL, the IC80 (TZM-bl neutralization) [5] was 0.584 µg/mL and the IC80 (TZM-bl neutralization) [6] was > 50 µg/mL. For the same substance, the IC80 (TZM-bl neutralization) [7] was > 50 µg/mL, the IC80 (TZM-bl neutralization) [8] was > 50 µg/mL and the IC80 (TZM-bl neutralization) [9] was > 50 µg/mL. For the same substance, the IC80 (TZM-bl neutralization) [10] was 6.54 µg/mL, the IC80 (TZM-bl neutralization) [11] was > 50 µg/mL and the IC80 (TZM-bl neutralization) [12] was > 50 µg/mL. For the same substance, the IC80 (TZM-bl neutralization) [13] was 0.89 µg/mL, the IC80 (TZM-bl neutralization) [14] was 0.156 µg/mL and the IC80 (TZM-bl neutralization) [15] was 0.031 µg/mL. The IC80 (TZM-bl neutralization) [16] was > 50 µg/mL, the IC80 (TZM-bl neutralization) [17] was 0.074 µg/mL and the IC80 (TZM-bl neutralization) [18] was > 50 µg/mL. For the same substance, the IC80 (TZM-bl neutralization) [19] was 0.054 µg/mL, the IC80 (TZM-bl neutralization) [20] was > 50 µg/mL and the IC80 (TZM-bl neutralization) [21] was > 50 µg/mL. The IC80 (TZM-bl neutralization) [22] was 0.202 µg/mL, the IC80 (TZM-bl neutralization) [23] was 0.058 µg/mL and the IC80 (TZM-bl neutralization) [24] was > 50 µg/mL. The IC80 (TZM-bl neutralization) [25] was 5.88 µg/mL, the IC80 (TZM-bl neutralization) [26] was 8.98 µg/mL and the IC50 (TZM-bl neutralization) [27] was 0.083 µg/mL. For the same substance, the IC50 (TZM-bl neutralization) [28] was > 50 µg/mL, the IC50 (TZM-bl neutralization) [29] was 1.04 µg/mL and the IC50 (TZM-bl neutralization) [30] was 0.017 µg/mL. For the same substance, the IC50 (TZM-bl neutralization) [31] was 0.008 µg/mL, the IC50 (TZM-bl neutralization) [32] was 0.004 µg/mL and the IC50 (TZM-bl neutralization) [33] was > 50 µg/mL. For the same substance, the IC50 (TZM-bl neutralization) [34] was 5.08 µg/mL, the IC50 (TZM-bl neutralization) [35] was 0.02 µg/mL and the IC50 (TZM-bl neutralization) [36] was < 0.001 µg/mL. For the same substance, the IC50 (TZM-bl neutralization) [37] was > 50 µg/mL, the IC50 (TZM-bl neutralization) [38] was 0.098 µg/mL and the IC50 (TZM-bl neutralization) [39] was 12.7 µg/mL. For the same substance, the IC50 (TZM-bl neutralization) [40] was > 50 µg/mL, the IC50 (TZM-bl neutralization) [41] was 0.023 µg/mL and the IC50 (TZM-bl neutralization) [42] was 0.001 µg/mL. The IC50 (TZM-bl neutralization) [43] was > 50 µg/mL, the IC50 (TZM-bl neutralization) [44] was > 50 µg/mL and the IC50 (TZM-bl neutralization assay) [45] was 0.007 µg/mL. The IC80 (TZM-bl neutralization assay) [45] was 0.041 µg/mL, the IC50 (TZM-bl neutralization assay) [46] was 0.013 µg/mL and the IC80 (TZM-bl neutralization assay) [46] was 0.056 µg/mL. For the same substance, the IC50 (TZM-bl neutralization assay) [47] was > 40 µg/mL, the IC80 (TZM-bl neutralization assay) [47] was > 40 µg/mL and the IC50 (TZM-bl neutralization assay) [48] was 0.098 µg/mL. For the same substance, the IC80 (TZM-bl neutralization assay) [48] was 0.356 µg/mL, the IC50 (TZM-bl neutralization assay) [49] was > 40 µg/mL and the IC80 (TZM-bl neutralization assay) [49] was > 40 µg/mL.
For 10-1074 (antibody), the IC80 (TZM-bl neutralization) [1] was 0.191 µg/mL, the IC80 (TZM-bl neutralization) [2] was 0.128 µg/mL and the IC80 (TZM-bl neutralization) [3] was > 50 µg/mL. For the same substance, the IC80 (TZM-bl neutralization) [4] was 0.163 µg/mL, the IC80 (TZM-bl neutralization) [5] was 0.306 µg/mL and the IC80 (TZM-bl neutralization) [6] was > 50 µg/mL. For the same substance, the IC80 (TZM-bl neutralization) [7] was > 50 µg/mL, the IC80 (TZM-bl neutralization) [8] was > 50 µg/mL and the IC80 (TZM-bl neutralization) [9] was > 50 µg/mL. For the same substance, the IC80 (TZM-bl neutralization) [10] was > 50 µg/mL, the IC80 (TZM-bl neutralization) [11] was 13.3 µg/mL and the IC80 (TZM-bl neutralization) [12] was > 50 µg/mL. For the same substance, the IC80 (TZM-bl neutralization) [13] was 0.43 µg/mL, the IC80 (TZM-bl neutralization) [14] was 0.261 µg/mL and the IC80 (TZM-bl neutralization) [15] was 0.021 µg/mL. The IC80 (TZM-bl neutralization) [16] was > 50 µg/mL, the IC80 (TZM-bl neutralization) [17] was > 50 µg/mL and the IC80 (TZM-bl neutralization) [18] was > 50 µg/mL. The IC80 (TZM-bl neutralization) [19] was 0.118 µg/mL, the IC80 (TZM-bl neutralization) [20] was > 50 µg/mL and the IC80 (TZM-bl neutralization) [21] was > 50 µg/mL. The IC80 (TZM-bl neutralization) [22] was 0.475 µg/mL, the IC80 (TZM-bl neutralization) [23] was 0.064 µg/mL and the IC80 (TZM-bl neutralization) [24] was > 50 µg/mL. For the same substance, the IC80 (TZM-bl neutralization) [25] was 0.367 µg/mL, the IC80 (TZM-bl neutralization) [26] was 0.349 µg/mL and the IC50 (TZM-bl neutralization) [27] was 0.022 µg/mL. The IC50 (TZM-bl neutralization) [28] was > 50 µg/mL, the IC50 (TZM-bl neutralization) [29] was > 50 µg/mL and the IC50 (TZM-bl neutralization) [30] was 0.009 µg/mL. For the same substance, the IC50 (TZM-bl neutralization) [31] was 0.014 µg/mL, the IC50 (TZM-bl neutralization) [32] was 0.002 µg/mL and the IC50 (TZM-bl neutralization) [33] was > 50 µg/mL. The IC50 (TZM-bl neutralization) [34] was > 50 µg/mL, the IC50 (TZM-bl neutralization) [35] was 0.087 µg/mL and the IC50 (TZM-bl neutralization) [36] was > 50 µg/mL. For the same substance, the IC50 (TZM-bl neutralization) [37] was > 50 µg/mL, the IC50 (TZM-bl neutralization) [38] was 0.139 µg/mL and the IC50 (TZM-bl neutralization) [39] was 1.17 µg/mL. For the same substance, the IC50 (TZM-bl neutralization) [40] was > 50 µg/mL, the IC50 (TZM-bl neutralization) [41] was > 50 µg/mL and the IC50 (TZM-bl neutralization) [42] was < 0.001 µg/mL. The IC50 (TZM-bl neutralization) [43] was 2.15 µg/mL, the IC50 (TZM-bl neutralization) [44] was > 50 µg/mL and the IC50 (TZM-bl neutralization assay) [45] was 0.007 µg/mL. The IC80 (TZM-bl neutralization assay) [45] was 0.044 µg/mL, the IC50 (TZM-bl neutralization assay) [46] was 0.007 µg/mL and the IC80 (TZM-bl neutralization assay) [46] was 0.044 µg/mL. For the same substance, the IC50 (TZM-bl neutralization assay) [47] was > 40 µg/mL, the IC80 (TZM-bl neutralization assay) [47] was > 40 µg/mL and the IC50 (TZM-bl neutralization assay) [48] was 0.143 µg/mL. For the same substance, the IC80 (TZM-bl neutralization assay) [48] was 0.398 µg/mL, the IC50 (TZM-bl neutralization assay) [49] was > 40 µg/mL and the IC80 (TZM-bl neutralization assay) [49] was > 40 µg/mL.
